Measurements as given in patent US20260139017A1, “COMPOSITIONS AND METHODS USING REELIN IN ALZHEIMER'S DISEASE” (The General Hospital Corporation, priority 2022, published 2026).
Values belong to the molecule of their own block, whether it stands above or below them.

Tests used:
[1] = tested on: pDAB1 (Tyr232); assay: HRECs treated 5 minutes with recombinant mini-RELN, pDAB1 western blot; assay type: cell-based, human; conditions: 5 minutes, 4 ug/mL recombinant protein
Procedure: For in vitro screening of constructs using recombinant mini-RELN on HRECs, the cells were cultured in EBM-2 media enriched with EGM-2 Single Quots (Lonza) at 37° C. and 5% CO2 and experimentally tested at passage 7. 24 h prior experiment, cells were plated on a 6-well plate at 500,000 cells/mL. Two hours before the experiment, the cells were washed with PBS to remove residual growth media and then incubated with a starving media including EBM-2, 1% GlutaMax+0.2% Normicin. Treatments was conducted using recombinant mini RELN constructs obtained from Innovagen and Recombinant Mouse Reelin Protein from R&D systems (3820-MR-025/CF). Each treatment was incubated for 5 minutes at 4 ug/mL concentration and cells were subsequently harvested in lysis buffer was applied constituted of RIPA (Cell signaling), proteases inhibitors (cOmplete™, Mini, EDTA-free Protease Inhibitor Cocktail, Roche), phosphatases inhibitors (PhosSTOP, Roche), 1 μL of proteasome inhibitor MG-132 10 mM, 1% Triton X 100. The lysates were scraped and centrifugated at 15000 rpm for 10 minutes at 4° C. Total protein levels were quantified via BCA assay. For Western Blotting, 3.5 ug protein homogenates were prepared under reducing and denaturing conditions using Laemmli buffer enriched with 10 mM DTT and 5 min boiling. Samples were electrophoretically separated in a 4-20% Gel at 90V and protein transferred to a PVDF membrane using iBlot™ 2 Dry Blotting System. The membrane was blocked using Intercept® (TBS) Blocking Buffer for 2 hours. We detected pDAB1 (Tyr232; 1:1000, rabbit, #3325 Cell signaling), and total protein staining (Licor). Antibodies were diluted using Intercept® (TBS) Blocking Buffer and incubated overnight at 4C under gentle shaking. Prior secondary antibody incubation, membranes were washed 2 times using TBS-T for 10 minutes. As secondary antibodies we used IR Dye 800n CW Goat-anti-Rabbit (925-32211, Licor) diluted 1:10000 in blocking buffer for 1 h at room temperature under gentle shaking. Membranes were washed three times with TBST-T prior IR detection using Odyssey imager. To quantify the results, each band was quantified using ImageJ and data expressed as pDABL:total protein ratio normalized to the control.

[2] = molecular target: T1, NRP1 (Homo sapiens, UniProt O14786); assay: Bio-layer interferometry (BLI) of CTR-RELN-NRP-1 interactions; assay type: binding; conditions: immobilized biotinylated NRP1
T1 construct: purchased R&D 3870-N1-025
T1 sequence (O14786 22-644 isoform O14786-2 limits assumed): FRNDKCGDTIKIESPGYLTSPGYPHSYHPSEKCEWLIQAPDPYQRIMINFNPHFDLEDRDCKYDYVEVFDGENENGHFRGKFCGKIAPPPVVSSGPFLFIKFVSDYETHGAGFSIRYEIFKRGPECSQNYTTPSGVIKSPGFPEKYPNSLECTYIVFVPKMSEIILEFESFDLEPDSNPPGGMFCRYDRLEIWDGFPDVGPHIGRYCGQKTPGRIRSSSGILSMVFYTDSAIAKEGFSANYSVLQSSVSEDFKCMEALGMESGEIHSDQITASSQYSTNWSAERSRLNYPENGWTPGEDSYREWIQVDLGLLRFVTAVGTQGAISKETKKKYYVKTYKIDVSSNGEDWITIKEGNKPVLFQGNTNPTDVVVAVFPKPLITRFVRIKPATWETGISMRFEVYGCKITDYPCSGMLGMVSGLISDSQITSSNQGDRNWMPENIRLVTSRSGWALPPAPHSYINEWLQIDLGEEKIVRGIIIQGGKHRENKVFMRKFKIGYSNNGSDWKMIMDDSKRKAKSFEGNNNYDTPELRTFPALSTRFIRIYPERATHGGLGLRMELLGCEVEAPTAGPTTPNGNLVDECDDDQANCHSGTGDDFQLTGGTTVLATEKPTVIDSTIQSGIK
Procedure: (§1) Bio-layer interferometry (BLI) was additionally used to assess NRP1-protein kinetics at 30° C. and 1000 rpm agitation. 1 mg/mL NRP1 (R&D 3870-N1-025) was biotinylated at a 1:2 molar ratio, desalted, and immobilized on the SA biosensor tip (Pall ForteBio) surface. This was followed by 1) 180 seconds baseline buffer diluent, 2) loading of the ligand (NRP1), 3) 180 seconds baseline buffer diluent, 4) 240 seconds association (analyte), and 5) 300 seconds disassociation in assay buffer. Assay buffer: SD Buffer (pH7.4 PBS, 0.05% tween20, 0.01% BSA).
The experimental data were fit with the 1:1 binding model and analyzed with global fitting using Octet Data Analysis software to calculate KD.
as §1, with “was” for “was additionally”, “agitation using previously published methods.” for “agitation.”

[3] = tested on: pDAB1 (Tyr232); assay: HRECs treated 5 minutes with HEK 293T-derived mini-RELN media, pDAB1 western blot; assay type: cell-based, human; conditions: HEK 293T-derived media 1:1, 1:4, 1:14, 5 minutes
Procedure: The effect of in vitro treatment with RELN or miniRELN protein was also evaluated. HRECs were cultured in EBM-2 media enriched with EGM-2 Single Quots (Lonza) at 37° C. and 5% CO2 and experimentally tested at passage 7. 24 h prior experiment, cells were plated on a 6-well plate at 500,000 cells/mL. Two hours before the experiment, the cells were washed with PBS to remove residual growth media and then incubated with a starving media including EBM-2, 1% GlutaMax+0,2% Normicin. Treatments was conducted using media derived from HEK 293T cells transiently transfected for 24 h with different mini-RELN constructs in the presence of Lipofectamine 2000. HEK-derived Lipofectamine2000-media was used as negative control. HEK 293T-derived media was tested at different ratio 1:1, 1:4, and 1:14 (Transfected media:Starving media). Each treatment was incubated for 5 minutes and cells were subsequently harvested in lysis buffer was applied constituted of RIPA (Cell signaling), proteases inhibitors (cOmplete™, Mini, EDTA-free Protease Inhibitor Cocktail, Roche), phosphatases inhibitors (PhosSTOP, Roche), 1 μL of proteasome inhibitor MG-132 10 mM, 1% Triton X 100. The lysates were scraped and centrifugated at 15000 rpm for 10 minutes at 4° C. Total protein levels were quantified via BCA assay. […] We detected pDAB1 (Tyr232; 1:1000, rabbit, #3325 Cell signaling), and Beta actin (1:5000, mouse, #66009-1-Ig, Proteintech. Antibodies were diluted using Intercept® (TBS) Blocking Buffer and incubated overnight at 4C under gentle shaking. Prior secondary antibody incubation, membranes were washes 2 times using TBS-T for 10 minutes. As secondary antibodies we used IR Dye 800n CW Goat-anti-Rabbit (925-32211, Licor) and IR Dye 680 CW Goat-anti-Mouse (925-68070, Licor) both diluted 1:10000 in blocking buffer for 1 h at room temperature under gentle shaking. Membranes were washed three times with TBS-T prior IR detection using Odyssey imager. To quantify the results, each band was quantified using ImageJ and data expressed as pDAB1:βActin ratio normalized to the control. […]

B1: hG2Fc-R5-6-C-termH3447R (protein)
chain: MYRMQLLSCIALSLALVTNSAPLERKSSVECPPCPAPPVAGPSVFLFPPKPKDTLMISRTPEVTCVVVDVSHEDPEVQFNWYVDGVEVHNAKTKPREEQFNSTFRVVSVLTVVHQDWLNGKEYKCKVSNKGLPAPIEKTISKTKGQPREPQVYTLPPSREEMTKNQVSLTCLVKGFYPSDIAVEWESNGQPENNYKTTPPMLDSDGSFFLYSKLTVDKSRWQQGNVFSCSVMHEALHNHYTQKSLSLSPGARTGGGGSGGGGSQTNATRFRLWQPYNNGKKEEIWIVDDFIIDGNNVNNPVMLLDTFDFGPREDNWFFYPGGNIGLYCPYSSKGAPEEDSAMVFVSNEVGEHSITTRDLNVNENTIIQFEINVGCSTDSSSADPVRLEFSRDFGATWHLLLPLCYHSSSHVSSLCSTEHHPSSTYYAGTMQGWRREVVHFGKLHLCGSVRFRWYQGFYPAGSQPVTWAIDNVYIGPQCEEMCNGQGSCINGTKCICDPGYSGPTCKISTKNPDFLKDDFEGQLESDRFLLMSGGKPSRKCGILSSGNNLFFNEDGLRMLMTRDLDLSHARFVQFFMRLGCGKGVPDPRSQPVLLQYSLNGGLSWSLLQEFLFSNSSNVGRYIALEIPLKARSGSTRLRWWQPSENGHFYSPWVIDQILIGGNISGNMVLEDDFTTLDSRKWLLHPGGTKMPVCGSTGDALVFIEKASTRYVVSTDVAVNEDSFLQIDFAVSCSVTDSCYAIELEYSVDLGLSWHPLVRDCLPTNVECSRYHLQRILVSDTFNKWTRITLPLPPYTRSQATRFRWHQPAPFDKQQTWAIDNVYIGDGCIDMCSGHGRCIQGNCVCDEQWGGLYCDDPETSLPTQLKDNFNRAPSSQNWLTVNGGKLSTVCGAVASGMALHFSGGCSRLLVTVDLNLTNAEFIQFYFMYGCLITPNNRNQGVLLEYSVNGGITWNLLMEIFYDQYSKPGFVNILLPPDAKEIATRFRWWQPRHDGLDQNDWAIDNVLISGSASTRKQNYMMNFSRQHGLRRFYNRRRRSLRRYP
pDAB1 levels [1]: increased pDAB1 levels

ka [2]: 12900 M⁻¹ s⁻¹
kd [2]: 0.00102 s⁻¹
B2: pfcn-huIgG2-C-termH3447R (protein)
chain: MYRMQLLSCIALSLALVTNSAPLERKSSVECPPCPAPPVAGPSVFLFPPKPKDTLMISRTPEVTCVVVDVSHEDPEVQFNWYVDGVEVHNAKTKPREEQFNSTFRVVSVLTVVHQDWLNGKEYKCKVSNKGLPAPIEKTISKTKGQPREPQVYTLPPSREEMTKNQVSLTCLVKGFYPSDIAVEWESNGQPENNYKTTPPMLDSDGSFFLYSKLTVDKSRWQQGNVFSCSVMHEALHNHYTQKSLSLSPGARTSTRKQNYMMNFSRQHGLRRFYNRRRRSLRRYP

B3: IL2ss-6xHis-FspCR50-R6-R6 Cterm RELN-H3447R (protein)
chain: MYRMQLLSCIALSLALVTNSGGHHHHHHGGGAAGYYPRFSPFFFLCTHHGELEGDGEQGEVLISLHIAGNPTYYVPGQEYHVTISTSTFFDGLLVTGLYTSTSVQASQSIGGSSAFGFGIMSDHQFGNQFMCSVVASHVSHLPTTNLSFIWIAPPAGTGCVNFMATATHRGQVIFKDALAQQLCEQGAPTDVTVHPHLAEIHSDSIILRDDFDSYHQLQLNPNIWVECNNCETGEQCGAIMHGNAVTFCEPYGPRELITTGLNTTTASVLQFSIGSGSCRFSYSDPSIIVLYAKNNSADWIQLEKIRAPSNVSTIIHILYLPEDAKGENVQFQWKQENLRVGEVYEACWALDNILIINGGSRTLDSRKWLLHPGGTKMPVCGSTGDALVFIEKASTRYVVSTDVAVNEDSFLQIDFAVSCSVTDSCYAIELEYSVDLGLSWHPLVRDCLPTNVECSRYHLQRILVSDTFNKWTRITLPLPPYTRSQATRFRWHQPAPFDKQQTWAIDNVYIGDGCIDMCSGHGRCIQGNCVCDEQWGGLYCDDPETSLPTQLKDNFNRAPSSQNWLTVNGGKLSTVCGAVASGMALHFSGGCSRLLVTVDLNLTNAEFIQFYFMYGCLITPNNRNQGVLLEYSVNGGITWNLLMEIFYDQYSSGGGTLDSRKWLLHPGGTKMPVCGSTGDALVFIEKASTRYVVSTDVAVNEDSFLQIDFAVSCSVTDSCYAIELEYSVDLGLSWHPLVRDCLPTNVECSRYHLQRILVSDTFNKWTRITLPLPPYTRSQATRFRWHQPAPFDKQQTWAIDNVYIGDGCIDMCSGHGRCIQGNCVCDEQWGGLYCDDPETSLPTQLKDNFNRAPSSQNWLTVNGGKLSTVCGAVASGMALHFSGGCSRLLVTVDLNLTNAEFIQFYFMYGCLITPNNRNQGVLLEYSVNGGITWNLLMEIFYDQYSTGGSGGSTRKQNYMMNFSRQHGLRRFYNRRRRSLRRYP
pDAB1 / Dab1 signaling activation [3]: efficacy
